Measurements as given in patent US20220153831A1 (HEDGEHOG, published 2022).
Substitutions are numbered along the chain they refer to.

T1: active human ETA (purified) (human, UniProt P25101 21-427)
T1 construct: also called human endothelin receptor type A
T1 sequence: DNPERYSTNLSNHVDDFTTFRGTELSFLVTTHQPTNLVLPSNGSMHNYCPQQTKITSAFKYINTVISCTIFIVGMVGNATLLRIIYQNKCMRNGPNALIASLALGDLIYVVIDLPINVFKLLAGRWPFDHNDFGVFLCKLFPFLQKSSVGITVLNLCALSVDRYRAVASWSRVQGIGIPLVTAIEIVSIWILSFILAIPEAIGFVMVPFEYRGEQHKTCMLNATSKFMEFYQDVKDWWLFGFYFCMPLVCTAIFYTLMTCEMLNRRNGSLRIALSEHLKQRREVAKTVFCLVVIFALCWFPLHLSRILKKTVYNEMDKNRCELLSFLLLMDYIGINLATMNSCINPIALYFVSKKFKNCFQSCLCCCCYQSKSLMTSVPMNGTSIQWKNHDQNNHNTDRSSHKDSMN

B1: AB9 (antibody, V domains shown)
VH: EVQLVESGAEVRKPGASVKVSCKASGYTFTSSDINWIRQATGQGLEWMGYMNPKNGNTDYAQKFQGRISMTRDSSISTAYMELSSLRSEDTAVYYCAKDRYGSGTYGEGMDVWGPGTLVT
VL: DIVMTQSPSAMSASVGDRVSITCRASQGINNYLAWFQQKPGKVPKRLMDVGSILQSGIPSRFRGRGSGTQFTLTISSLQAEDSGTYFCLQHNTYPLTFGPGTKVEIKR
notes: also called lead antibody
B2: GG12 (antibody, V domains shown)
VH: B1 VH with T105V, E108F
VL: B1 VL
notes: also called lead antibody
B3: FG12 (antibody, V domains shown)
VH: B1 VH with S103L, E108F
VL: B1 VL
notes: also called lead antibody
B4: EF12 (antibody, V domains shown)
VH: B1 VH with R100P, E108F
VL: B1 VL
notes: also called lead antibody

The binders below were run against T1, active human ETA (purified) (assay: ELISA on purified active ETA).
Method: The cross-binding activities of the developed antibodies to human ETA and mouse ETA were tested by ELISA.

binding result | Binder
binds | B1
binds | B2
binds | B3
binds | B4
